Data reported in patent US20130209396A1 (ELEVEN BIOTHERAPEUTICS, published 2013).
Where a chain is given by its changes, count along the chain named. One block for each binder: values may come before it.

Columns and labels:
[1] = target: T1, soluble recombinant human IL-1RI (corresponding to the extracellular domain of IL-1RI) (human, UniProt P14778 18-336); assay: SPR (Reichert SR7000DC), soluble human IL-1RI; end of range tied to P04 by Table 7
T1 construct: extracellular domain; also called interleukin-1 receptor I; immobilized soluble IL-1RI
T1 sequence (looked up): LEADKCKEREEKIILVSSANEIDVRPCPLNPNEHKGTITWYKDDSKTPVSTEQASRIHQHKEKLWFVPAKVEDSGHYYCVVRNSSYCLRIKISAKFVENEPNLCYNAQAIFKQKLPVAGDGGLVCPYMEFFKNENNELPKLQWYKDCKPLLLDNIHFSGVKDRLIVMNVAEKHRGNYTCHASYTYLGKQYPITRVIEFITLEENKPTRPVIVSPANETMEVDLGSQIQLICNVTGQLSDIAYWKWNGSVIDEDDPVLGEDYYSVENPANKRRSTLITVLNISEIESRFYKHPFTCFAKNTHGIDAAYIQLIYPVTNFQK
Experimental: (§1) The binding properties of proteins for soluble recombinant human IL-1RI (corresponding to the extracellular domain of IL-1RI) were evaluated using surface plasmon resonance with a Reichert SR7000DC Dual Channel SPR system. Binding was evaluated in phosphate buffered saline with 0.005% Tween 20. […] Thus, the P01 protein bound to IL-1RI with a greater affinity than did IL-1β under similar conditions.
(§2) See for example FIGS. 9C and 9D and Table 7 below.

[2] = target: T1, soluble recombinant human IL-1RI …; assay: SPR (Reichert SR7000DC), soluble human IL-1RI; end of range tied to P03 (highest Kd) by Table 7
Experimental: as §1, §2

[3] = target: T2, IL-1RI on HEK-Blue IL-1β responsive cells (UniProt P14778 18-569); assay: cell-based or functional assay
T2 sequence (looked up): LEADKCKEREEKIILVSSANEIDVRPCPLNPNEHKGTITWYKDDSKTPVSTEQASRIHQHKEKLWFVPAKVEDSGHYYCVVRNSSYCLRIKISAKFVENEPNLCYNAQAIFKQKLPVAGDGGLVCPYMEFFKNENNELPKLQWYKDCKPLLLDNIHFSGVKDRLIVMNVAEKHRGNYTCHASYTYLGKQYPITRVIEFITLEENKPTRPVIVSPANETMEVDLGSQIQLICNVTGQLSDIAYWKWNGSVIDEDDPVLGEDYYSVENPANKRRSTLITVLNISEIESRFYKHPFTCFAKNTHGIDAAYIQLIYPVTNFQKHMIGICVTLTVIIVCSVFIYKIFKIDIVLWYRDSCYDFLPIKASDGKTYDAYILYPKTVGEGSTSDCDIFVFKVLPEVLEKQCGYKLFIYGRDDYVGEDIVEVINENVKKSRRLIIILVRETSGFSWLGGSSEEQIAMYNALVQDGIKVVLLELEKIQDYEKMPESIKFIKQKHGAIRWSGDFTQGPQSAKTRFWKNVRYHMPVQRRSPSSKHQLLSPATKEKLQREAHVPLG

[4] = target: T1, soluble recombinant human IL-1RI …; assay: SPR (Reichert SR7000DC), soluble human IL-1RI; end of range tied to P02 (lowest Kd) by Table 7
Experimental: as §1, §2

Kd [1]: 1.7 nM
kon [1]: 30000 M⁻¹ s⁻¹
B1: P04 (designed binder)
chain: APVRSLAFRIWDVNQKTFYLRNNQLVAGYLQGPNVNLEEKFSMSFVQGEESNDKIPVALGLKEKNLYLSCVLKDDKPTLQLESVDPKNYPKKKMEKRFVFNKIEINNKLEFESAACPGWFLCTAMEADQPVSLTNMPDEGVMVTKFTMQFVSS
notes: Chimeric IL-1β/IL-1Ra cytokine domain expressed in E. coli; Both hexa-histidine tagged and untagged forms were made; also called P04 domain

koff [2]: 0.001 s⁻¹
B2: P03 (designed binder)
chain: B1 chain with N101I, K102R, I103S, E104D, I105S, N106G, N107P, K108T, L109T, E110S
notes: Chimeric IL-1β/IL-1Ra cytokine domain expressed in E. coli; Both hexa-histidine tagged and untagged forms were made; also called P03 domain

IC50 of antagonism of IL-1β activity, SEAP reporter in HEK-Blue IL-1β cells [3]: < 5 ng/mL
B3: P05 (designed binder)
chain: B1 chain with A7N, F8C, A115Q, C116F, G118N, T147Y

koff [4]: 2e-05 s⁻¹
B4: P02 (designed binder)
chain: APVRSLAFRIWDVNQKTFYLRNNQLVAGYLQGPNVNLEEKIDVSFVQGEESNDKIPVALGIHGGKMCLSCVKSGDETRLQLEAVDPKNYPKKKMEKRFVFNKIEINNKLSFESAACPGWFLCTAMEADQPVSLTNMPDEGVMVTKFYMQFVSS
notes: Chimeric IL-1β/IL-1Ra cytokine domain expressed in E. coli; also called P02 domain
